The source of these data is patent US20150313972A1.

Where “and” joins values, the source holds several entries; their conditions need not be identical. Identical values can stand only once.

The target of the assay is M6P receptors on the surface of human fibroblasts (human), P11717. The experiment in a line: cell-based or functional assay.
M6P receptors on the surface of human fibroblasts (human), P11717, sequence (P11717 41-2491): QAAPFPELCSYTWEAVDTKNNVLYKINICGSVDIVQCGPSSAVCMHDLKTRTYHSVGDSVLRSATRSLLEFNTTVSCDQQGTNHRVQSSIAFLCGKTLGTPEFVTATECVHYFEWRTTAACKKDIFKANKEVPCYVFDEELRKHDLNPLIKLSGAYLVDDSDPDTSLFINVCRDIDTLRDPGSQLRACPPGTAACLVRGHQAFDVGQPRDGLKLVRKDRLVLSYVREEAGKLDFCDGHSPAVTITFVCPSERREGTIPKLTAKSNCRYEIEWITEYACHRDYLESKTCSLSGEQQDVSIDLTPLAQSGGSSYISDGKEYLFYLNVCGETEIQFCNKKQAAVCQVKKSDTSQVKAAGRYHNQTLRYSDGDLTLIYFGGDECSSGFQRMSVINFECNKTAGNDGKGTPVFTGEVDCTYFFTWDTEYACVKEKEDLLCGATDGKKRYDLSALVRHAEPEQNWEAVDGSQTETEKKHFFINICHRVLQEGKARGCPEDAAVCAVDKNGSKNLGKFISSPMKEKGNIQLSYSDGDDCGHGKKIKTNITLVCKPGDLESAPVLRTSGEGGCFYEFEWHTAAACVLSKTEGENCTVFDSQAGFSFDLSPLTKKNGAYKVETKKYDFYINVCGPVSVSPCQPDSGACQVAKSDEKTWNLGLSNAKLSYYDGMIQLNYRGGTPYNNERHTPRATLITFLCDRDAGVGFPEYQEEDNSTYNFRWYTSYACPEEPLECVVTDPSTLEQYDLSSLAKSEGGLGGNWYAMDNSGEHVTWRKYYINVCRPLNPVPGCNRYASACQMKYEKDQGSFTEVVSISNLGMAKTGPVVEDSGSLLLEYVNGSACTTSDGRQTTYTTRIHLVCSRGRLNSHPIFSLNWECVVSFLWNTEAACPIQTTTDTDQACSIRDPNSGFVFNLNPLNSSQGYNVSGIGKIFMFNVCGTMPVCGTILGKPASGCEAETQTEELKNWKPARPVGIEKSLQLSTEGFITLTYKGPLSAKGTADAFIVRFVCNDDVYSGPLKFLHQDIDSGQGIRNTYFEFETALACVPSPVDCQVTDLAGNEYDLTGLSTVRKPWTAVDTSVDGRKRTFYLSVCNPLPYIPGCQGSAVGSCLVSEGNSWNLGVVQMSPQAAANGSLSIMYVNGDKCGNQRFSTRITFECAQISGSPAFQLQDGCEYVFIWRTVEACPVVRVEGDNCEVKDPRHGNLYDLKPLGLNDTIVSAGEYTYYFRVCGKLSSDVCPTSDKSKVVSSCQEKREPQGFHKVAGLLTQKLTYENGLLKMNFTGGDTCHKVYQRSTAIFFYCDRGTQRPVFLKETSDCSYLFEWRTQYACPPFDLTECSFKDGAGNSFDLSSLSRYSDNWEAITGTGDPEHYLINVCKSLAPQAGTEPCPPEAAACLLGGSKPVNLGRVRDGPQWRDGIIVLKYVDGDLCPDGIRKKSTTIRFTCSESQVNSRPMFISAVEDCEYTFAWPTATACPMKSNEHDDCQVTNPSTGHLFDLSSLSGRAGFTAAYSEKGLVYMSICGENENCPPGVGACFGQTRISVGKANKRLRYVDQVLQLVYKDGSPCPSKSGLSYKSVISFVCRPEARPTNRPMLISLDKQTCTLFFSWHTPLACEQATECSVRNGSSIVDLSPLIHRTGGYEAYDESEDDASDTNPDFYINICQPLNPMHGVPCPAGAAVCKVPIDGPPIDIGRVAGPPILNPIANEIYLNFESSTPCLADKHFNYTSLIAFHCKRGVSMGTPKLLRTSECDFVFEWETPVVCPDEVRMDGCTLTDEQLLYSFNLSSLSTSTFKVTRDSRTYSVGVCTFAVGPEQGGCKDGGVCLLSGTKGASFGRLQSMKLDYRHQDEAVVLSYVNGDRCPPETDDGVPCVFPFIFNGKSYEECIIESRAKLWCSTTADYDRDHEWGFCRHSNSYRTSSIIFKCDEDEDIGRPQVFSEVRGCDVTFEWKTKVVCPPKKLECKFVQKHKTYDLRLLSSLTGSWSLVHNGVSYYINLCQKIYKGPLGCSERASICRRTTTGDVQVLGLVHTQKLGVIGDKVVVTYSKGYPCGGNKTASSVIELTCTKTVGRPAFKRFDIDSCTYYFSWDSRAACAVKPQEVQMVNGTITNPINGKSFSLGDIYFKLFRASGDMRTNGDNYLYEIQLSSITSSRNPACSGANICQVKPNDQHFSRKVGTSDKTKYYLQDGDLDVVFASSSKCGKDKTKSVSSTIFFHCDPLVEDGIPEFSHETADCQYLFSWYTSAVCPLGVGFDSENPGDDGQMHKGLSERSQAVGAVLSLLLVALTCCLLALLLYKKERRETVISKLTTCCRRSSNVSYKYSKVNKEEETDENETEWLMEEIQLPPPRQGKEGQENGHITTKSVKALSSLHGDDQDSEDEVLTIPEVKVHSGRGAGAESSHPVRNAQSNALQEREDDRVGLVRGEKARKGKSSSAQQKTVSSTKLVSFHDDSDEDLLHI

B1: purified recombinant human iduronate-2-sulfatase (I2S) produced in serum-free medium, P22304 26-550 (enzyme)
chain: SETQANSTTDALNVLLIIVDDLRPSLGCYGDKLVRSPNIDQLASHSLLFQNAFAQQAVCAPSRVSFLTGRRPDTTRLYDFNSYWRVHAGNFSTIPQYFKENGYVTMSVGKVFHPGISSNHTDDSPYSWSFPPYHPSSEKYENTKTCRGPDGELHANLLCPVDVLDVPEGTLPDKQSTEQAIQLLEKMKTSASPFFLAVGYHKPHIPFRYPKEFQKLYPLENITLAPDPEVPDGLPPVAYNPWMDIRQREDVQALNISVPYGPIPVDFQRKIRQSYFASVSYLDTQVGRLLSALDDLQLANSTIIAFTSDHGWALGEHGEWAKYSNFDVATHVPLIFYVPGRTASLPEAGEKLFPYLDPFDSASQLMEPGRQSMDLVELVSLFPTLAGLAGLQVPPRCPVPSFHVELCREGKNLLKHFRFRDLEEDPYLPGNPRELIAYSQYPRPSDIPQWNSDKPSLKDIKIMGYSIRTIDYRYTVWVGFNPDEFLANFSDIHAGELYFVDSDPLQDHNMYNDSQGGDLFQLLMP
modifications: here or on the partner: cysteine corresponding to Cys59 of mature human I2S (SEQ ID NO:1) converted to C-alpha-formylglycine (87-95% in Table 4, 94% in Table 13); glycans bearing sialic acid and mannose-6-phosphate
With B1, the Cell Uptake is 98; the Cellular Uptake (Bioassay) is 85% and 95% and 97%; the Internalization amounted to 83%.
